Target: the molecule itself
Assay: SDS-PAGE without DTT in the loading buffer and immunoblot (band of dimer size); SIE3::GFP leaf extract in native buffer, incubated with 10 μM ATP at 4°C with 0 or 100 mM DTT; stopped with SDS loading buffer without DTT; anti-GFP blot

B1: SIE3::GFP (natural protein, L. japonicus, UniProt K0BV36 1-386, looked up)
chain: MELSTIKDAFDRVTKKQKSSSSKTQEVIDQIRQEIENVLDTMQSVNNTDHVLDHKTVLNELKASLLQTAPLSQMEGTQKELNVALSKYGKLLEKNFNTDISKAYRNIDIDVHTLNQIIANHFYRQGLFEIGDHFLSVVGEPESAAVMKSPFLEMYQILEAMKNQDLEPALKWATSNSDKLAQSGSDIVLKLHSMQFVKILQNGSRDEALHYARTYLSPFASSHIADIQKLMGSLLWTGKLDSSPYHALLSPSNWDRLAEELKRQFCNLLGQSYNSPLSVTISAGVQALPPLLKFMNVMVGKKQEWQTMNQLPVPVELDSELQFHSIFVCPVSKEQATEDNPPMLMSCGHVLCKQSISKMSKNGSKLFKCPYCPFDVDAALCKQLYF
notes: SIE3 of Lotus japonicus fused to GFP; the cloning of this construct is not described; Detected with anti-GFP antibody; monomer about 68.5 kDa, upper band about 137 kDa; source: N. benthamiana leaves, total proteins extracted in native buffer
  stoichiometry N: 2
